In experiment [1] the target is porcine GP2 isoform 1, incompletely deglycosylated under native conditions (pig). In words: static adhesion assay (bacteria on coated protein); porcine GP2 incubated in native conditions with (NE) or without (N) deglycosylation enzymes, coated; S. Typhimurium 5744 wild type and its fimH deletion mutant added.
Experiment [2] has as its target porcine GP2 isoform 2, incompletely deglycosylated under native conditions (pig). Described as above.

The results in this text go back to paper PMC6113376.

In the case of “FimH of Salmonella Typhimurium wild type strain Tym5744 (from UniProt P37925 23-335) (natural protein)”, the results for the percent decrease of binding against GP2 that was not digested in experiment [1] and in experiment [2] were 59% and 53%, respectively.
